Source: patent US20250361284A1, “TRANSPOSASE FUSION PROTEINS FOR USE IN CELL AND GENE THERAPY” (JULIUS-MAXIMILIANS-UNIVERSITÄT WÜRZBURG, priority 2022, published 2025)

Key:
Type in all cases: cell-based, human
CD4+ T cells = experiment: CAR gene transfer (EGFRt flow cytometry) in CD4+ T cells, dd-SB100X vs wild type SB100X plasmid; settings: day 7
Method: (4A) CAR gene transfer in CD4+ T cells using dd-SB100X fusion-transposase vs. wild type SB100X transposase. CD3/CD28 activated CD4+ T cells were nucleofected with CD19-CAR_EGFRt SB transposon minicircle DNA and plasmid encoding either the fusion-transposase (pdd-SB100X/dd-SB100X) or the wild type SB transposase (pSB100X/SB100X). At 7 days post-nucleofection, flow cytometric analysis was performed to determine the percentage of T cells that express the EGFRt reporter. Top panel: Dot plots show EGFRt expression on day 7 post-nucleofection.
(§1) Anonymous healthy donor blood samples were received upon written consent to participate in research protocols approved by the Institutional Review Board of the Universitätsklinikum Würzburg (UKW). Blood samples were processed for T cells isolation as published earlier (Querques et al., 2019). Briefly, Peripheral blood mononuclear cells (PBMCs) were isolated by density centrifugation with Biocoll separating solution (Biochrom). Both CD4+ and CD8+ T cells were sorted by negative isolation approach using microbeads and magnetic associated cell sorting (MACS, Miltenyi) methods as described by the manufacturer. The isolated CD4+ and CD8+ T cells were cultured in T cell medium (RPMI-1640 with 10% (vol/vol) human serum, 2 mM L-glutamine, 100 U ml-1 penicillin-streptomycin) containing IL-2 (50 units per mL) and activated by anti-CD3/CD28 bead stimulation (Thermo Fisher). Two days post-activation, approximately 2 million T cells were nucleofected with vectors (1 μg of CD19 CAR (EGFRt)-encoding transposon as plasmid or minicircle DNA; 1 μg of mRNA encoding SB transposase) or 10 μg of hsSB protein (Querques et al., 2019) using a 4D Nucleofector (Lonza) as per the manufacturer's instructions. […]
We next investigated if the dd-SB100X fusion-transposase retained transposition activity in primary human T cells. […] We observed differences in CD19-CAR_EGFRt expression, as evidenced by mean fluorescence intensity (MFI) of EGFRt by flow cytometry.

CD19 CAR T cells = experiment: Transposon (CAR) copy number analysis by ddPCR in CAR T cells; settings: plasmid-encoded transposase, EGFRt-enriched CAR T cells
Method: (4C) CAR Copy number analysis of CD8+ CD19 CAR T cells engineered with dd-SB100X fusion transposase. The number of integrations per genome was analyzed by ddPCR. Data shown are mean values of three biological replicates measured in technical triplicates and shown ±S.E.M. The data was analyzed using unpaired, two-tailed Student's T-test and differences were statistically significant (*, p=0.0274).
(6D) Transposon copy number analysis in EGFRt+ CD8+ T cells that were nucleofected with CD19-CAR_EGFRt SB transposon minicircle DNA and mRNA encoding either the wild type SB transposase (SB100X) or the fusion-transposase (dd-SB100X) assessed by digital droplet PCR.
Genomic DNA (gDNA) of CAR-positive T cells was isolated using dPureLink gDNA Mini Kit (Invitrogen, California, USA). Droplet digital PCR (ddPCR) was set up and analyzed in technical triplicates. Each ddPCR reaction contained ready-to-use ddPCR Supermix for Probes No dUTP (Bio-Rad, California, USA), 20 ng of the respective fragmented gDNA, 0.2 μL of CviQl (10 000 U/mL) (NEB, Frankfurt am Main, Germany), 0.1 μL of Dpnl (20,000 U/mL) (NEB, Frankfurt am Main, Germany), 200 nM of each respective ddPCR FAM/HEX probe, and 600 nM of each respective forward and reverse primer in a final volume of 25 μL. CviQl was used to fragment the gDNA to ensure single-copies per droplet. DPNI was used to specifically digest non-integrated vectors. […]

CD8+ T cells = experiment: Gene transfer in CD8+ T cells with TMP priming before nucleofection; settings: day 7
Method: CD8+ T cells were isolated from healthy donor PBMC and activated with CD3/CD28 bead stimulation. […] Cells were nucleofected with CD19-CAR_EGFRt SB transposon minicircle DNA and plasmid encoding either the wild type SB transposase (SB100X) or the fusion-transposase (dd-SB100X). […] At 7 days post-nucleofection, flow cytometric analysis was performed to determine the percentage of T cells that expresses the EGFRt reporter. Top panel: Dot plots show EGFRt expression on day 7 post-nucleofection.
as §1, with “instructions. CD19 CAR-modified (i.e., EGFRt+) T cells were enriched using biotin-conjugated anti-EGFR monoclonal antibody and anti-biotin beads (Miltenyi) as per the manufacturer's instructions.” for “instructions.”

HeLa cells = experiment: Transposition assay (G-418-resistant colonies) in HeLa cells; settings: presence of TMP
Description: (2D) Transposition assay for evaluating the activity of dd-SB100X fusion-transposase. HeLa cells were transfected with neomycin-marked transposon plasmid and construct expressing wild type SB transposase (SB100X) or fusion-transposase (dd-SB100X), and selected for transposition events by antibiotic selection with G-418. Data representing the number of G-418-resistant colonies are shown on the right.
An transposon donor vector with neomycin resistance gene was generated de novo in house using Gibson assembly. In order to test the activity (in terms of integration capability) of the fusion-transposase (dd-SB100X) transposition assay was performed in HeLa cells as per the published protocol (Ivics et al., 1997). Briefly, ˜150,000 HeLa cells were seeded into each well of a 6-well plate a day before transfection. […] After 10 days of selection, cells were washed with PBS, fixed with tissue culture fixing solution, stained with methylene blue and counted.
We next examined the activity of the fusion-transposase (dd-SB100X) by standard transposition assay wherein we transfected HeLa cells with a SB transposon donor plasmid encoding a neomycin resistance gene, together with plasmid encoding SB100X as a positive control, or the fusion-transposase protein. […] After 10 days, colonies were fixed, stained and counted to determine the integration events achieved under each of the experimental conditions.

K562/CD19 target cells = experiment: Antigen specific proliferation (CFSE dye dilution) of CD19 CAR T cells; settings: 72 hours, stimulation with K562/CD19 target cells
Method: (4E) Antigen specific proliferation by CD4+ CD19 CAR T cells engineered with dd-SB100X fusion transposase. Proliferation of CD4+ CAR T cells was examined by CFSE dye dilution after 72 hours of co-culture with K562/CD19 or K562 target cells. For analysis, triplicate wells were pooled and the proliferation of viable 7-AAD-negative T cells was analyzed. The division index (average number of cell divisions) was calculated using FlowJo software. Data shown are mean values ±s.d. of one representative experiment.
as §1, with “Fisher).” for “Fisher). Two days post-activation, approximately 2 million T cells were nucleofected with vectors (1 μg of CD19 CAR (EGFRt)-encoding transposon as plasmid or minicircle DNA; 1 μg of mRNA encoding SB transposase) or 10 μg of hsSB protein (Querques et al., 2019) using a 4D Nucleofector (Lonza) as per the manufacturer's instructions.”

B1: dd-SB100X: ecDHFR destabilizing domain fused via linker to N-terminus of SB100X transposase; SEQ ID NO: 2 (protein)
chain: MISLIAALAVDYVIGMENAMPWNLPADLAWFKRNTLNKPVIMGRHTWESIGRPLPGRKNIILSSQPSTDDRVTWVKSVDEAIAACGDVPEIMVIGGGRVIEQFLPKAQKLYLTHIDAEVEGDTHFPDYEPDDWESVFSEFHDADAQNSHSYCFEILERKLGGGAPAVGGGPKMGKSKEISQDLRKRIVDLHKSGSSLGAISKRLAVPRSSVQTIVRKYKHHGTTQPSYRSGRRRVLSPRDERTLVRKVQINPRTTAKDLVKMLEETGTKVSISTVKRVLYRHNLKGHSARKKPLLQNRHKKARLRFATAHGDKDRTFWRNVLWSDETKIELFGHNDHRYVWRKKGEACKPKNTIPTVKHGGGSIMLWGCFAAGGTGALHKIDGIMDAVQYVDILKQHLKTSVRKLKLGRKWVFQHDNDPKHTSKVVAKWLKDNKVKVLEWPSQSPDLNPIENLWAELKKRVRARRPTNLTQLHQLCQEEWAKIHPNYCGKLVEGYPKRLTQVKQFKGNATKY
modifications: misc_feature 1..1539 ecDHFR-SB100X
CD4+ T cells; cultured in absence of TMP after nucleofection
  gene transfer rate (EGFRt+ T cells): ~6.6%
CD4+ T cells; dd-SB100X cultured in presence of TMP after nucleofection, SB100X wild type control
  gene transfer rate (EGFRt+ T cells): ~18%
CD4+ T cells; presence of TMP
  MFI of EGFRt compared to wild type SB100X: lower MFI
CD19 CAR T cells
  transposon copies per genome (average): 2.99 copies per genome
CD8+ T cells
  MFI of EGFRt expression compared to wild type SB100X: lower MFI
CD8+ T cells; not primed with TMP
  gene transfer (EGFRt+ T cells): ~26.1%
CD8+ T cells; primed with TMP 1000 nM for 24 hours before nucleofection
  gene transfer (EGFRt+ T cells): ~29.7%
HeLa cells
  transposition activity: active and mediated transposition activity
  transposition activity compared to wild type SB100X: reduced transposition activity
K562/CD19 target cells
  proliferation (cell divisions): > 3 cell divisions
